From the supplement of paper PMC10567573 come the findings set out here.

First the molecules themselves.
B1: EPB41L3 (parent)
chain: SMQCKVILLDGSEYTCDVEKRSRG
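Further: lentivirally expressed fusions sorted by FACS into six bins by GFP to DsRed ratio, PSI derived from sequencing read proportions per bin multiplied by bin number.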

Variants of B1 are the subject of this data set. Briefly: protein stability index of a GFP-peptide fusion (GPS, HEK-293T) (PSI 1-6); higher = more stable. Particulars: c terminus: a fixed tail appended.
For SMQHKVILLDGSEYTCDVEKRSRG [C4H], the protein stability index amounted to 3.46. In the case of SMQPKVILLDGSEYTCDVEKRSRG [C4P] it was 3.94; in that of SMQKKVILLDGSEYTCDVEKRSRG [C4K], 4.37; in that of SMQRKVILLDGSEYTCDVEKRSRG [C4R], 4.51. In the case of SMQYKVILLDGSEYTCDVEKRSRG [C4Y] it was 2.29; in that of SMQTKVILLDGSEYTCDVEKRSRG [C4T], 3.61.

Take SMQQKVILLDGSEYTCDVEKRSRG [C4Q]: the protein stability index amounted to 4.28. In the case of SMQDKVILLDGSEYTCDVEKRSRG [C4D] it was 4.23; in that of SMQMKVILLDGSEYTCDVEKRSRG [C4M], 2.6. In the case of SMQGKVILLDGSEYTCDVEKRSRG [C4G] it was 4.33; in that of SMQWKVILLDGSEYTCDVEKRSRG [C4W], 2.32; in that of SMQEKVILLDGSEYTCDVEKRSRG [C4E], 4.48. With SMQIKVILLDGSEYTCDVEKRSRG [C4I], the protein stability index is 2.41. In the case of SMQNKVILLDGSEYTCDVEKRSRG [C4N] it was 3.07; in that of SMQAKVILLDGSEYTCDVEKRSRG [C4A], 3.93; in that of SMQFKVILLDGSEYTCDVEKRSRG [C4F], 2.03. For the variant SMQVKVILLDGSEYTCDVEKRSRG [C4V], the protein stability index was 3.17. Consider SMQLKVILLDGSEYTCDVEKRSRG [C4L], for which the protein stability index turned out to be 2.04. For the variant SMQSKVILLDGSEYTCDVEKRSRG [C4S], the protein stability index was found to be 3.78. In the case of SMQCKLILLDGSEYTCDVEKRSRG [V6L] it was 2.44. Take SMQCKCILLDGSEYTCDVEKRSRG [V6C]: the protein stability index stood at 2.07.

Regarding SMQCKEILLDGSEYTCDVEKRSRG [V6E], the protein stability index came out at 4.55. In the case of SMQCKRILLDGSEYTCDVEKRSRG [V6R], the protein stability index worked out at 3.62. In the case of SMQCKNILLDGSEYTCDVEKRSRG [V6N] it was 4.5. In the case of SMQCKTILLDGSEYTCDVEKRSRG [V6T] it was 3.71. In the case of SMQCKHILLDGSEYTCDVEKRSRG [V6H] it was 2.56. As for SMQCKFILLDGSEYTCDVEKRSRG [V6F], the protein stability index was 2.76.

Take SMQCKGILLDGSEYTCDVEKRSRG [V6G]: the protein stability index stood at 3.61.

For SMQCKIILLDGSEYTCDVEKRSRG [V6I], the protein stability index is 2.2. In the case of SMQCKMILLDGSEYTCDVEKRSRG [V6M] it was 3.36. SMQCKQILLDGSEYTCDVEKRSRG [V6Q]: the protein stability index is 2.97.

As for SMQCKPILLDGSEYTCDVEKRSRG [V6P], the protein stability index turned out to be 4.68.

In the case of SMQCKSILLDGSEYTCDVEKRSRG [V6S], the protein stability index stood at 4.07.

On to SMQCKYILLDGSEYTCDVEKRSRG [V6Y], for which the protein stability index is 2.95. As for SMQCKDILLDGSEYTCDVEKRSRG [V6D], the protein stability index turned out to be 4.38.

For SMQCKWILLDGSEYTCDVEKRSRG [V6W], the protein stability index amounted to 2.59.

As for SMQCKAILLDGSEYTCDVEKRSRG [V6A], the protein stability index stood at 2.1. In the case of SMQCKVILNDGSEYTCDVEKRSRG [L9N] it was 3.92.

Take SMQCKVILYDGSEYTCDVEKRSRG [L9Y]: the protein stability index came to 2.41.

For the variant SMQCKVILADGSEYTCDVEKRSRG [L9A], the protein stability index was 3.6. As to SMQCKVILFDGSEYTCDVEKRSRG [L9F], the protein stability index amounted to 2.83. Take SMQCKVILKDGSEYTCDVEKRSRG [L9K]: the protein stability index came out at 3.81. In the case of SMQCKVILGDGSEYTCDVEKRSRG [L9G] it was 3.72; in that of SMQCKVILRDGSEYTCDVEKRSRG [L9R], 3.03; in that of SMQCKVILPDGSEYTCDVEKRSRG [L9P], 3.71. For the variant SMQCKVILHDGSEYTCDVEKRSRG [L9H], the protein stability index is 3.44. In the case of SMQCKVILVDGSEYTCDVEKRSRG [L9V] it was 3.31; in that of SMQCKVILMDGSEYTCDVEKRSRG [L9M], 3.2. On to SMQCKVILSDGSEYTCDVEKRSRG [L9S], for which the protein stability index was determined as 2.85.

Turning to SMQCKVILIDGSEYTCDVEKRSRG [L9I], the protein stability index is 2.97. In the case of SMQCKVILQDGSEYTCDVEKRSRG [L9Q] it was 3.94; in that of SMQCKVILEDGSEYTCDVEKRSRG [L9E], 4.28; in that of SMQCKVILTDGSEYTCDVEKRSRG [L9T], 3.51. Regarding SMQCKVILCDGSEYTCDVEKRSRG [L9C], the protein stability index was determined as 2.79.

SMQCKVILDDGSEYTCDVEKRSRG [L9D]: the protein stability index was 4.09. In the case of SIQCKVILLDGSEYTCDVEKRSRG [M2I] it was 2.12; in that of SFQCKVILLDGSEYTCDVEKRSRG [M2F], 2.55. SLQCKVILLDGSEYTCDVEKRSRG [M2L]: the protein stability index is 2.55.

For the variant SSQCKVILLDGSEYTCDVEKRSRG [M2S], the protein stability index is 3.2. Take SPQCKVILLDGSEYTCDVEKRSRG [M2P]: the protein stability index came to 3.42. In the case of SKQCKVILLDGSEYTCDVEKRSRG [M2K] it was 3.24; in that of SQQCKVILLDGSEYTCDVEKRSRG [M2Q], 3.64. In the case of SCQCKVILLDGSEYTCDVEKRSRG [M2C] it was 2.08; in that of SEQCKVILLDGSEYTCDVEKRSRG [M2E], 4.4; in that of SVQCKVILLDGSEYTCDVEKRSRG [M2V], 2.6.

Consider SDQCKVILLDGSEYTCDVEKRSRG [M2D], for which the protein stability index stood at 3.38. Take SAQCKVILLDGSEYTCDVEKRSRG [M2A]: the protein stability index was 3.24. In the case of SYQCKVILLDGSEYTCDVEKRSRG [M2Y] it was 1.5; in that of SRQCKVILLDGSEYTCDVEKRSRG [M2R], 2.72; in that of SHQCKVILLDGSEYTCDVEKRSRG [M2H], 2.9. In the case of SNQCKVILLDGSEYTCDVEKRSRG [M2N] it was 4.06; in that of STQCKVILLDGSEYTCDVEKRSRG [M2T], 3.53.

As for SGQCKVILLDGSEYTCDVEKRSRG [M2G], the protein stability index amounted to 3.36.

For the variant SMQCCVILLDGSEYTCDVEKRSRG [K5C], the protein stability index amounted to 1.77. In the case of SMQCRVILLDGSEYTCDVEKRSRG [K5R] it was 2.06; in that of SMQCWVILLDGSEYTCDVEKRSRG [K5W], 2.59. With SMQCYVILLDGSEYTCDVEKRSRG [K5Y], the protein stability index was 3.16. SMQCNVILLDGSEYTCDVEKRSRG [K5N]: the protein stability index was found to be 3.06. In the case of SMQCGVILLDGSEYTCDVEKRSRG [K5G] it was 3.57. In the case of SMQCPVILLDGSEYTCDVEKRSRG [K5P], the protein stability index came out at 3.85. In the case of SMQCHVILLDGSEYTCDVEKRSRG [K5H] it was 2.39; in that of SMQCMVILLDGSEYTCDVEKRSRG [K5M], 1.43. With SMQCAVILLDGSEYTCDVEKRSRG [K5A], the protein stability index is 3.27. With SMQCDVILLDGSEYTCDVEKRSRG [K5D], the protein stability index came to 3.96. SMQCQVILLDGSEYTCDVEKRSRG [K5Q]: the protein stability index worked out at 3.06.

On to SMQCLVILLDGSEYTCDVEKRSRG [K5L], for which the protein stability index stood at 1.31. In the case of SMQCSVILLDGSEYTCDVEKRSRG [K5S] it was 3.04; in that of SMQCEVILLDGSEYTCDVEKRSRG [K5E], 3.48; in that of SMQCTVILLDGSEYTCDVEKRSRG [K5T], 2.54. In the case of SMQCFVILLDGSEYTCDVEKRSRG [K5F] it was 1.58.

For SMQCKVILLKGSEYTCDVEKRSRG [D10K], the protein stability index came to 3.15. Take SMQCKVILLFGSEYTCDVEKRSRG [D10F]: the protein stability index is 2.14.

On to SMQCKVILLGGSEYTCDVEKRSRG [D10G], for which the protein stability index is 2.14. In the case of SMQCKVILLMGSEYTCDVEKRSRG [D10M] it was 1.5.
